Laboratory results published in paper PMC9173640, “PI Kinase-EhGEF2-EhRho5 axis contributes to LPA stimulated macropinocytosis in Entamoeba histolytica” (PLoS Pathogens, 2022).

Target: T1, GST-RBD (Rho binding domain of mRhotekin) ( (printed as mRhotekin), UniProt Q8C6B2 17-98)
T1 construct: also called RBD-GST; source: E. coli BL21(DE3), purified (GST-sepharose beads); construct a gift from Dr. Richard Cerione
T1 sequence (looked up): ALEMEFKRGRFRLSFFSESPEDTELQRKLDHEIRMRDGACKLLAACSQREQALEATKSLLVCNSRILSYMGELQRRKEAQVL
Test: pull-down; GST-RBD/GST-PBD bound to sepharose beads incubated 2 hrs at 4°C with lysates (10 mM MgCl2, 5 mM EDTA) of serum starved HA-EhRho5 trophozoites, with or without 15 uM LPA for 15 mins, followed by 100 nM wortmannin or DMSO; blot with anti-HA
Conditions: one partner purified

B1: HA-EhRho5 (natural protein)
chain: not shown
notes: EhRho5 (EhRacD), Rho family GTPase of Entamoeba histolytica, Acc no; EHI_012240; PCR primers run from the ATG to the stop codon; cloned in EhEx-HA with SmaI-XhoI; Expressed under the amoebic cysteine synthase promoter; also called EhRacD; source: E. histolytica HM1:IMSS trophozoites, stably transfected (EhEx-HA), in lysate
Q: Which “fold increase in binding after LPA treatment against untreated trophozoites” value does the source give for B1 here?
A: The value was 7 fold.
